These results are taken from patent US20210340270A1 (Amgen, published 2021).

Experiment [1] addresses murine Jagged-1 stably expressed on 293T cells (mouse, UniProt Q9QXX0 34-1218). As to the kind of experiment: cell-based or functional assay.
The target in experiment [2] is human Jagged-1 expressed on transfected 293 / 293T cells (human, UniProt P78504 34-1218). As to the kind of experiment: cell-based or functional assay.
The target in experiment [3] is human and rat Jagged-1 (recombinant purified Notch ligands in the ELISA). Kind of experiment: direct binding ELISA on recombinant purified Notch ligands.
The target in experiment [4] is T1, Recombinant Human DLL4 His tag (R&D Systems Cat #: 1506-D4-050) (human, UniProt Q9NR61 27-524).
T1 construct: Bought construct; also called human Deltalike 4; not shown: His tag
T1 sequence (Q9NR61 27-524 limits assumed): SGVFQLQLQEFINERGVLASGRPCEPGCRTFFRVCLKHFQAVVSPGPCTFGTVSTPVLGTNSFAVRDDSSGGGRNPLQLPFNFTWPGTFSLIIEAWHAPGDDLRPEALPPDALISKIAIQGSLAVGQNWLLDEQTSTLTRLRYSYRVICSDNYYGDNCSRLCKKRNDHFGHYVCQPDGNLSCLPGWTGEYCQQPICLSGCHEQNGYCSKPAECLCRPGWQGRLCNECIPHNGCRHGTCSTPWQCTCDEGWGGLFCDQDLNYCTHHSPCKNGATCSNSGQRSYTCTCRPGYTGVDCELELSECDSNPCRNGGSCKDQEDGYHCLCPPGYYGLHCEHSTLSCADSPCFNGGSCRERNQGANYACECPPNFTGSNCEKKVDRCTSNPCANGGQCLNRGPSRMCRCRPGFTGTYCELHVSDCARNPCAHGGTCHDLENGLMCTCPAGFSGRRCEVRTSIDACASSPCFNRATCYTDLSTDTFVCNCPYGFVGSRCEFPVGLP
As to the kind of experiment: ELISA, 1 ug/ml ligand coated on the plate, 15D11.1 titrated, absorbance 450 nm. On the procedure: (§1) 15D11.1 was tested for binding to recombinant purified Notch ligands; human Jagged1 Fc (Recombinant Human Jagged 1 Fc chimera—R&D Systems Cat #: 1277-M-050), human Jagged1 His (Human JAG1/Jagged1 His Tag Sino Biological Cat #: 11648-H08H), rat Jagged1 Fc (Recombinant Rat Jagged 1 Fc chimera—R&D Systems—Cat #: 599-JG-050), human Jagged2 (Recombinant Human Jagged 2 Fc chimera—R&D Systems Cat #: 1726-JG-050), murine Jagged2 (Recombinant Mouse Jagged 2 Fc chimera—R&D Systems Cat #: 4748-JG-050), murine Delta-like 1 (Recombinant Mouse DLL1 His tag—Sino Biological Cat #: 50522-M08H-50), human Deltalike 4 (Recombinant Human DLL4 His tag—R&D Systems—Cat #: 1506-D4-050) and murine Deltalike 4 (Recombinant Mouse DLL4 His tag—R&D Systems—Cat #: 1389-D4-050) using a standard enzyme-linked immunosorbent assay (ELISA). 1 ug/ml of Notch ligand protein (as indicated) in PBS, pH7.4, was coated onto ELISA plates (Nunc Maxisorp) at 4° C. overnight. Plates were blocked with Casein blocker in PBS (Pierce) for one hour at room temperature. Serial 2-fold dilutions of 15D11.1
(§2) in PBST buffer (PBT buffer (PBS+0.05% (v/v) Tween 20) with 0.5% (w/v) BSA) were added to the plates and incubated for one hour at room temperature. The plates were then washed with PBST and bound antibodies were detected with peroxidase-conjugated goat anti-human Fab specific IgG (Sigma). TMB substrate (3,3′,5,5′-tetramethylbenzidine) was used and absorbance at 450 nm was read using a standard ELISA plate reader. Absorbance was plotted against concentrations of 15D11.1 in FIGS. 8A and 8B.

For experiment [5], the target named is T2, Recombinant Mouse DLL4 His tag (R&D Systems Cat #: 1389-D4-050) (mouse, UniProt Q9JI71 28-525).
T2 construct: Bought construct; also called murine Deltalike 4; not shown: His tag
T2 sequence (Q9JI71 28-525 limits assumed): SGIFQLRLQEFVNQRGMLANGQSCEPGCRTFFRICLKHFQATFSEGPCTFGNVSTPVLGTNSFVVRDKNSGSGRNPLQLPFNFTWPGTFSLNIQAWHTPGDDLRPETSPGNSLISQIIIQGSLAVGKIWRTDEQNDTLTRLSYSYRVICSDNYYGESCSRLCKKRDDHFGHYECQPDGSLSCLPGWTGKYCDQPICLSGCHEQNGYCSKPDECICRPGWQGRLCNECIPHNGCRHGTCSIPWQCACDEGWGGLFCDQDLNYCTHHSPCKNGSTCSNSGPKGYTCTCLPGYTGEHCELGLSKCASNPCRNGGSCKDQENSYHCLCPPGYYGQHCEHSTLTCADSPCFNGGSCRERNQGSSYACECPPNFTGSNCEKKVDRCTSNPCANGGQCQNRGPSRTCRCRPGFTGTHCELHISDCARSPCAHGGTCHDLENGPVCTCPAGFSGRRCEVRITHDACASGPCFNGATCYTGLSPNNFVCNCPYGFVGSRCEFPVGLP
The experiment is described as above. On the procedure: as §1, §2

The target in experiment [6] is T3, Recombinant Human Jagged 2 Fc chimera (R&D Systems Cat #: 1726-JG-050) (human, UniProt Q9Y219 27-1080).
T3 construct: Bought construct; not shown: Fc part and any linker of the bought chimera not described
Described as above. As to the method: as §1, §2

In experiment [7] the target is T4, Recombinant Mouse Jagged 2 Fc chimera (R&D Systems Cat #: 4748-JG-050) (mouse, UniProt Q9QYE5 27-1082).
T4 construct: Bought construct; also called murine Jagged2; not shown: Fc part and any linker of the bought chimera not described
T4 sequence (Q9QYE5 27-1082, change not shown): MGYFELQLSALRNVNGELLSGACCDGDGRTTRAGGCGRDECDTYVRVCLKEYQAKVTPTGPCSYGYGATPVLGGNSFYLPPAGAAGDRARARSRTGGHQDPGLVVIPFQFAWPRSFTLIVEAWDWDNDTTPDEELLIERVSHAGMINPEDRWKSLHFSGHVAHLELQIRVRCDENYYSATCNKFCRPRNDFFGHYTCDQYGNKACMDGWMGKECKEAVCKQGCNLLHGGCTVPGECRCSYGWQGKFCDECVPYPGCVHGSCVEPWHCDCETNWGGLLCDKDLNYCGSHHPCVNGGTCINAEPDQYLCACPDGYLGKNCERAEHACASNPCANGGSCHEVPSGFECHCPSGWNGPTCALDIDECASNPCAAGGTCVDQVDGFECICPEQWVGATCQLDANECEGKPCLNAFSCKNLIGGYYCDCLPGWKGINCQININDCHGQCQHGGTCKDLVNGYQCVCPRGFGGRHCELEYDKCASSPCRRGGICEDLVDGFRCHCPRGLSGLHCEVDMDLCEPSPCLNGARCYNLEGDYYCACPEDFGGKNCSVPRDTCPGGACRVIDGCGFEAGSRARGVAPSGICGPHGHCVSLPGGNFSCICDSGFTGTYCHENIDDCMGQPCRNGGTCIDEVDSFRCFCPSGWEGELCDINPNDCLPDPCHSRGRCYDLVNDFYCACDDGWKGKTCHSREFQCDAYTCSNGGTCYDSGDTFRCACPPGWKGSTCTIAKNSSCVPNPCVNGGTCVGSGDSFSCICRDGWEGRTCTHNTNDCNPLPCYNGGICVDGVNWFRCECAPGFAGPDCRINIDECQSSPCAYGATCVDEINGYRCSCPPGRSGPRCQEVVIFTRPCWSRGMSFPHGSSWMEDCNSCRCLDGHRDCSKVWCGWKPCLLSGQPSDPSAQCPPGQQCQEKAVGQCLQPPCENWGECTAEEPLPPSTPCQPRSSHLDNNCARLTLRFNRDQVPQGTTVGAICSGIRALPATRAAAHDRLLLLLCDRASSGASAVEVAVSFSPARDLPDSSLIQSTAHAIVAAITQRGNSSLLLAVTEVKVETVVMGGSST
The experiment is described as above. As to the method: as §1, §2

The target in experiment [8] is T5, Recombinant Mouse DLL1 His tag (Sino Biological Cat #: 50522-M08H-50) (mouse, UniProt Q61483 18-540).
T5 construct: Bought construct; also called murine Delta-like 1; not shown: His tag
T5 sequence (Q61483 18-540 limits assumed, stated change not applied): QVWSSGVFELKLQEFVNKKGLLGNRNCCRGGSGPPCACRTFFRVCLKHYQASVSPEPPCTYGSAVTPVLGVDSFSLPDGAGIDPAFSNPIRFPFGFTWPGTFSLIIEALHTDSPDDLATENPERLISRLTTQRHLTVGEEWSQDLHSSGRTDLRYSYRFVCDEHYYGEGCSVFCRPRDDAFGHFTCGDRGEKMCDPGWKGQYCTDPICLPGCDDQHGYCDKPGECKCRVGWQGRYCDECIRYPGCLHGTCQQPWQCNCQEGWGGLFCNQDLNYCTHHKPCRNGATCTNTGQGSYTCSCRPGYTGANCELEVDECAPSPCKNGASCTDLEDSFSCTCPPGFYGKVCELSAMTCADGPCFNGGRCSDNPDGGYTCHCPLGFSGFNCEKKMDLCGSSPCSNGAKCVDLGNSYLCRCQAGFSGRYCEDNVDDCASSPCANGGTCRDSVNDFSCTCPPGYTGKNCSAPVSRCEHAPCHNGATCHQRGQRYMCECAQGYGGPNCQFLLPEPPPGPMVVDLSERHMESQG
The description is as above. As to the method: as §1, §2

Experiment [9] deals with T6, recombinant human Jagged1 extracellular domain (Met 1-Ser 1046), fused with a polyhistidine tag at the … (human, UniProt P78504 34-1046).
T6 construct: Bought protein; also called hJagged1; soluble recombinant hJagged1; not shown: C-terminal polyhistidine tag
Kind of experiment: Octet Red96 BLI; mAb captured on AHC anti-HuFc biosensors, soluble hJagged1 as analyte; mean of 3 experiments. As to the method: (§3) The affinity of the soluble recombinant hJagged1 was determined in Octet platform (Octet Red96) under the manufactures recommended kinetic measurement settings. Briefly, hJagged1 was diluted 1 to 3 from 150 nM to 0.5 nM in Octet buffer (10 mM Tris base, 150 mM NaCl, 1 mM CaCl2, 0.1 mg/ml BSA, 0.1% Triton X100) and 60 ul of this serial diluted samples were taken in 384 well tilted bottom (TW384) black polypropylene microplate (Forte Bio, Cat #18-0019) (sample plate). 3 ug/ml of anti-hJagged1 mAb 15D11.1 present in 60 ul in sample plate was used and captured on AHC—anti-HuFc (Kinetic) biosensors (cat #18-5060). A sample with buffer alone is used as a control.

Experiment [10] addresses T7, Recombinant Human Jagged 1 Fc chimera (R&D Systems Cat #: 1277-M-050) (human, UniProt P78504 32-1046).
T7 construct: also called hJAG1 Fc; not shown: Fc part and any linker of the bought chimera not described
As to the kind of experiment: direct binding ELISA; 1 ug/ml ligand coated, antibody titrated, anti-human Fab-HRP detection (printed as IC50). On the procedure: as §1, §2

Experiment [11] has as its target T8, Human JAG1/Jagged1 His Tag (Sino Biological Cat #: 11648-H08H) (human, UniProt P78504 34-1046).
T8 construct: also called human Jagged1 His; hJAG1 His; not shown: His tag
The experiment is described as above. On the procedure:
as §1, §2

The target of experiment [12] is T9, Recombinant Rat Jagged 1 Fc chimera (R&D Systems Cat #: 599-JG-050) (rat, UniProt Q63722 32-1046).
T9 construct: Bought construct; also called rJAG1; not shown: Fc part and any linker of the bought chimera not described
The experiment is described as above. As to the method: as §1, §2

Experiment [13] concerns the target T6, recombinant human Jagged1 extracellular …. Kind of experiment: Octet Red96 BLI; mAb captured on AHC anti-HuFc biosensors, soluble hJagged1 as analyte; mean of 3 experiments (same KD as r8c2, in nM). On the procedure:
as §3

Experiment [14] concerns the target T7, Recombinant Human Jagged 1 Fc chimera …. As to the kind of experiment: ELISA, 1 ug/ml ligand coated on the plate, 15D11.1 titrated, absorbance 450 nm; single experiment shown (the text prints only a mean of n = 3). As to the method: as §1, with “1 ug/ml of Notch ligand protein (as indicated) in PBS, pH7.4, was coated onto ELISA plates (Nunc Maxisorp) at 4° C. overnight. Plates were blocked with Casein blocker in PBS (Pierce) for one hour at room temperature. Serial 2-fold dilutions of 15D11.1” left out
as §2

Sequence of murine Jagged-1 stably expressed on 293T cells (Q9QXX0 34-1218): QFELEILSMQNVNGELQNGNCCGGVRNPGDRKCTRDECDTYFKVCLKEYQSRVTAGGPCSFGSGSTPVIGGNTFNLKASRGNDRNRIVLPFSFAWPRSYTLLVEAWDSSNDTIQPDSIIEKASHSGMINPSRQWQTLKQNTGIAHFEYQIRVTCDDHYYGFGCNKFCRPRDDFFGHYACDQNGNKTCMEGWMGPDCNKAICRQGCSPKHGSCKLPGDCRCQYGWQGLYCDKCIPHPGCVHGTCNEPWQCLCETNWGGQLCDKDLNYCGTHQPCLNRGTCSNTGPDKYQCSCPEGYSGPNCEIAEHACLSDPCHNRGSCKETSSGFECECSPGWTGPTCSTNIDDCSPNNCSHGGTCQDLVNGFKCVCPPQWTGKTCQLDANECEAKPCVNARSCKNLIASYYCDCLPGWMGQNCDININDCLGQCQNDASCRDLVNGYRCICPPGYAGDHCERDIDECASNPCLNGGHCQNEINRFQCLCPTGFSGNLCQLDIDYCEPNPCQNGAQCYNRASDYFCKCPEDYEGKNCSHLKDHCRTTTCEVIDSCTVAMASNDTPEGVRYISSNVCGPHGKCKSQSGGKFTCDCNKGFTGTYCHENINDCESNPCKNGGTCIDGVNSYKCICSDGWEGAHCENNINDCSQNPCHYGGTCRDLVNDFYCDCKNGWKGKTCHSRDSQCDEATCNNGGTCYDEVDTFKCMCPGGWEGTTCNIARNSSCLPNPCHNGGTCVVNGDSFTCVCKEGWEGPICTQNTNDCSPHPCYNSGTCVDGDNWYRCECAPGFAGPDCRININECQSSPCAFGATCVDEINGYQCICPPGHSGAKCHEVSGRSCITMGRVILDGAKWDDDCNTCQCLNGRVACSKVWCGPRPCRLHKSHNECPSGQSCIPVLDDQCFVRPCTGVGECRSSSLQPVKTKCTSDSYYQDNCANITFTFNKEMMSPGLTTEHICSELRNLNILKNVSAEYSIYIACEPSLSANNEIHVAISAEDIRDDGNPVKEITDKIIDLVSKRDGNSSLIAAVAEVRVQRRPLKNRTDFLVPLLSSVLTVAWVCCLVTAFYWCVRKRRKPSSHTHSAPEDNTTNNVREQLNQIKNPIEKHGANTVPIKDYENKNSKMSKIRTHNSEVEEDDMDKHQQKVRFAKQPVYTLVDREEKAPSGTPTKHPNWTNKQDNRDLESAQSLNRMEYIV
Sequence of human Jagged-1 expressed on transfected 293 / 293T cells (P78504 34-1218 P227R/N498D limits assumed): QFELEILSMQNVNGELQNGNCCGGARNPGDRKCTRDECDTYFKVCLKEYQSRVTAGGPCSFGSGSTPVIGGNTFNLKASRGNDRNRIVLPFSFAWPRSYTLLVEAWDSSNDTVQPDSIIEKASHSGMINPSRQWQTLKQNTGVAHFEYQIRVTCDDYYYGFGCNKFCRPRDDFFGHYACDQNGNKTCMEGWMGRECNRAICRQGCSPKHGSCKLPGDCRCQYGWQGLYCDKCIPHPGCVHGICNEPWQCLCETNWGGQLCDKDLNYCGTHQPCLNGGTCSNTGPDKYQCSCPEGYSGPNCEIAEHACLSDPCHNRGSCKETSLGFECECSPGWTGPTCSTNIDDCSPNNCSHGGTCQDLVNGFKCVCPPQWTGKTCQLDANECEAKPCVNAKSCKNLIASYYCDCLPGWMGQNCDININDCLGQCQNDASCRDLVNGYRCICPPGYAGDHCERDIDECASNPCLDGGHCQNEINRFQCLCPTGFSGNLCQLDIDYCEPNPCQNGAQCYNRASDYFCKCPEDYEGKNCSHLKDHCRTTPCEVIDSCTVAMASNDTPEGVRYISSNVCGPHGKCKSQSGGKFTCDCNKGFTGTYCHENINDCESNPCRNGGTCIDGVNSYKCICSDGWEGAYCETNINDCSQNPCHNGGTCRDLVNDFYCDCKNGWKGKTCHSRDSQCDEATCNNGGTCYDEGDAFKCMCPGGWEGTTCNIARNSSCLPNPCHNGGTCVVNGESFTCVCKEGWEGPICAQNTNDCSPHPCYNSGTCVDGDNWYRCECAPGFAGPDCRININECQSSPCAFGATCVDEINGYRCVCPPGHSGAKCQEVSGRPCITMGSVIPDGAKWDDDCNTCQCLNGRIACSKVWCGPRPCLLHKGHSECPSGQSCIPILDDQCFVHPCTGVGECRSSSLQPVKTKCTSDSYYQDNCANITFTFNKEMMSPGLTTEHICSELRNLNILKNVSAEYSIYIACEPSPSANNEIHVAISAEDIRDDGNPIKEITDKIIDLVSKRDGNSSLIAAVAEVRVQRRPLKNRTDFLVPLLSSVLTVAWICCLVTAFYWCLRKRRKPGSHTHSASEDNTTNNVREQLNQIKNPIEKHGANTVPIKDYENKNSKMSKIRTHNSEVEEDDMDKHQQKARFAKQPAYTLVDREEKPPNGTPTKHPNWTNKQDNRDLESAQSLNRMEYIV

B1: anti-hJagged1 mAb 15D11.1 (antibody, V domains shown)
VH: QVTLKESGPVLVKPTETLTLTCTVSGFSLSNAEMGVSWIRQPPGKALEWLAHLFSNDEKSYSTSLKSRLTISKDTSKSQVVLTMTDLDPVDTATYYCARSFNWNYDFDYWGQGTLVTVSS
VL: QSALTQPASVSGSPGQSITISCTGTSSAVGGHNFVSWYQQYPGKAPKLMIYEVSNRPSGVSTRFSGSKSGNTASLTISGLQAEDEADYYCSSYTSSSTWVFGGGTRLTVL
notes: Fully human monoclonal antibody from XenoMouse (XMG2-KL / XMG4-KL) hybridomas; also called iPS:480499; anti-Jag-1 15D11.1
For the molecule B1, the “IC50, murine Jagged-1 induced murine Notch1 activation co-culture assay (7xCSL firefly luciferase reporter in 293T/murine Notch1 cells)” value in experiment [1] was 7.72 nM. In addition, the “avg IC50, murine Jagged-1 induced murine Notch1 activation co-culture assay (7xCSL firefly luciferase reporter in 293T/murine Notch1 cells)” value in experiment [1] is 9 nM. Besides, the “IC50, human Jagged-1 induced human Notch2 activation co-culture assay (12xCSL firefly luciferase reporter in SK-MEL-28 cells)” value in experiment [2] is 1.69 nM. Further, the “avg IC50, human Jagged-1 induced human Notch2 activation co-culture assay (12xCSL firefly luciferase reporter in SK-MEL-28 cells)” value in experiment [2] was 2.31 nM. The concentration for half-maximal inhibition (IC50) in experiment [3] is 0.3 to 0.9 nM; in experiment [10], 0.8 nM; in experiment [11] it was 0.39 nM; in [12], 0.51 nM. Besides, the binding result in [4], in experiment [5], in experiment [6], in experiment [7] and in experiment [8] was “no binding (tested: about log 1.8 nM (about 60 nM))” each time. The koff in experiment [9] came out at 0.000189 s⁻¹. For the same molecule, the on-rate (kon) in [9] was found to be 331000 M⁻¹ s⁻¹. For the same molecule, in experiment [13], the dissociation constant Kd worked out at 0.61 nM. For the same molecule, in experiment [14], the “EC50 (read off the curve)” value is around 0.4 nM.
